Source: patent US20240092919A1 (Ablynx, published 2024)
Numbering of substitutions follows the chain as printed. Names may count otherwise. Where two headings read alike, the source gives them in different places. Values belong to the binder of their own block, whether it stands above or below them.

Legend:
[1] = biological target: T1, Cynomolgus T cell receptor on cynomolgus primary T cells (cynomolgus monkey); assay: cell-based or functional assay
[2] = biological target: T2, Human T cell receptor on human primary T cells (human, UniProt P01848 1-140; P01850 1-176); assay: cell-based or functional assay
T2 TCR alpha (looked up): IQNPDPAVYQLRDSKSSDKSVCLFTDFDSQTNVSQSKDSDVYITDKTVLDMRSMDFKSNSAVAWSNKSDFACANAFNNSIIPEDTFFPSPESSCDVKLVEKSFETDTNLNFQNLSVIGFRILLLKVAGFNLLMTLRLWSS
T2 TCR beta (looked up): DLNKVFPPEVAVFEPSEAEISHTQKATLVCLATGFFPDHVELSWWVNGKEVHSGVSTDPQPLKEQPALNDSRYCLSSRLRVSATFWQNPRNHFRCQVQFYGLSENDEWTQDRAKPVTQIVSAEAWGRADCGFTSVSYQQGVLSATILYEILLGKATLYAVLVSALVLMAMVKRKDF

[3] = biological target: T2, Human T cell receptor on human primary …; assay: cell-based or functional assay
[4] = biological target: T1, Cynomolgus T cell receptor on …; assay: cell-based or functional assay; remark: listed apart in the source
[5] = biological target: T1, Cynomolgus T cell receptor on …; assay: cell-based or functional assay; remark: listed apart in the source
[6] = biological target: T2, Human T cell receptor on human primary …; assay: cell-based or functional assay
[7] = biological target: T3, Cynomolgus TCR(AEA41865/AEA41866)-zipper protein (cynomolgus monkey); assay: SPR, ProteOn XPR36, 25 C, immobilised TCR-zipper
T3 construct: also called cyTCR-zipper protein; cynoTCR zipper
Description: (§2) HuTCR-zipper or cyTCR-zipper protein was immobilized on a GLC sensor chip (between 100-200 RU) via amine coupling chemistry, using EDC/NHS for activation of the carboxyl groups on the chip surface (running buffer: HBS-EP+, pH7.4). […] Processed sensorgrams were fitted with the Langmuir model (1:1 interaction) using ProteOn Manager 3.1.0 (Version 3.1.0.6) software.
T3 TCR alpha: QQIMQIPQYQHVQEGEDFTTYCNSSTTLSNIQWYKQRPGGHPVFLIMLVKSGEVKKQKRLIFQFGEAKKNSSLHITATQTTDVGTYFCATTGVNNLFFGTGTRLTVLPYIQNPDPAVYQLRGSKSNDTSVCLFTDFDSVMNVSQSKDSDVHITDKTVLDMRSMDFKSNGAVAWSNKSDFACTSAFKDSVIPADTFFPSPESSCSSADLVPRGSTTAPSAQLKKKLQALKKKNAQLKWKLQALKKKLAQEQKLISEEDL
T3 TCR beta: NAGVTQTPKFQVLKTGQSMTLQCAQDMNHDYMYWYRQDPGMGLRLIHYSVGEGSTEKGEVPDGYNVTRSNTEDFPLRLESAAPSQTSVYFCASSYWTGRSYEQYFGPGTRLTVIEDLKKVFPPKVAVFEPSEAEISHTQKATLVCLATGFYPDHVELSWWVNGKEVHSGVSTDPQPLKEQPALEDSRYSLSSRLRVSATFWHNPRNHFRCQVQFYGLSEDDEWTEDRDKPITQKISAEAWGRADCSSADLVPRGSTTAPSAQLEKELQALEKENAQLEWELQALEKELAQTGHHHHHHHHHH

[8] = biological target: T1, Cynomolgus T cell receptor on …; assay: cell-based or functional assay; remark: listed apart in the source
[9] = biological target: T2, Human T cell receptor on human primary …; assay: cell-based or functional assay
[10] = biological target: T4, human T cell receptor on human primary T cells (human, UniProt P01848 1-140; P01850 1-176); assay: flow cytometry, human primary T cells
T4 construct: whole, on cells
Description: Dose-dependent binding of the purified monovalent ISVD variants to CHO-K1 huTCR(2XN9)/huCD3 overexpressing cells or human primary T cells was evaluated by flow cytometry. […] Next, cells were washed 3 times with FACS buffer and incubated with 1 μg/ml THE™ His Tag Antibody, mAb, Mouse (Genscript, A00186) and washed again. […] Subsequently, cells were resuspended in FACS buffer supplemented with 5 nM TO-PRO®-3 Iodide to distinguish live from dead cells, which are removed during the gating procedure. Cells were analyzed using a FACS Array flow cytometer (BD Biosciences) and Flowing Software. First a P1 population which represented more than 80% of the total cell population was selected based on FSC-SSC distribution. In this gate, 10000 cells were counted during acquisition. From this population the TO-PRO®-3+ cells (dead cells) were excluded and the mean fluorescence intensity (MFI) PE value was calculated.
T4 TCR alpha (looked up): T2 TCR alpha (looked up)
T4 TCR beta (looked up): T2 TCR beta (looked up)

[11] = biological target: T3, Cynomolgus …; assay: SPR, ProteOn XPR36, 25 C, immobilised TCR-zipper
Description: as §2

[12] = biological target: T2, Human T cell receptor on human primary …; assay: flow cytometry, human primary T cells
Description: (§3) The ISVD variants were characterized for binding to CHO-K1 huTCR(2XN9)/huCD3 or to human and cynomolgus primary T cells. […] Next, cells were washed 3 times with FACS buffer and incubated with 1 μg/ml ANTI-FLAG® M2 Ab (Sigma, F1804) and washed again. […] Subsequently, cells were resuspended in FACS buffer supplemented with 5 nM TO-PRO®-3 Iodide to distinguish live from dead cells, which are removed during the gating procedure. Cells were analyzed using a FACS Array flow cytometer (BD Biosciences) and Flowing Software. First a P1 population which represented more than 80% of the total cell population was selected based on FSC-SSC distribution. In this gate, 10000 cells were counted during acquisition. From this population the TO-PRO®-3+cells (dead cells) were excluded and the mean fluorescence intensity (MFI) PE value was calculated.

[13] = biological target: T3, Cynomolgus …; assay: higher koff divided by lower koff, humanTCR zipper vs cynoTCR zipper (SPR)
[14] = biological target: T2, Human T cell receptor on human primary …; assay: flow cytometry, human primary T cells
Description: as §3

[15] = biological target: T5, Cynomolgus T cell receptor on the HSC-F cynomolgus T cell line (cynomolgus monkey); assay: flow cytometry competition with Flag3-His6-tagged anti-TCR ISVD ligand, HSC-F cells
T5 construct: whole, on cells; also called HSC-F cells; HSC-F cyno T cell line (NIBIO JCRB1164)
Description: (§4) Subsequently, cells were resuspended in FACS buffer supplemented with 1 μg/ml Propidium Iodide (PI, Sigma, P4170) to distinguish live from dead cells. Cells were analyzed using a FACS Array flow cytometer (BD Biosciences) using Flowing Software. First a P1 population which represented more than 80% of the total cell population was selected based on FSC-SSC distribution. In this gate, 10000 cells were counted during acquisition. From this population the Propidium iodide or TO-PRO©-3 Iodide positive cells (dead cells) were excluded and the median or Mean PE value was calculated.

[16] = biological target: T2, Human T cell receptor on human primary …; assay: flow cytometry competition with Flag3-His6-tagged anti-TCR ISVD ligand, human primary T cells
Description: as §4

[17] = biological target: T3, Cynomolgus …; assay: SPR off-rate, ProteOn XPR36, immobilised TCR-zipper
[18] = biological target: T6, human TCR on primary human T cells (human, UniProt P01848 1-140; P01850 1-176); assay: flow cytometry competition on primary human T cells; competitor Flag-tagged T017000624 at EC30
T6 construct: whole, on cells; also called human TCRαβ
T6 TCR alpha (looked up): T2 TCR alpha (looked up)
T6 TCR beta (looked up): T2 TCR beta (looked up)
Description: (§1) T cells (human T cells obtained as described in Example 3 and cyno T cells purchased from LPT laboratory, Germany) were thawed and counted on the day of the assay and diluted to a concentration of 1E+06 cells/mL, before adding 75 μL to the wells of a V-bottom 96-well plate (Greiner, cat no 651180). Cells were washed once with cold FACS buffer, before adding 25 μL Nb and 25 μL competitor to the wells. […] Cells were resuspended and plates were incubated at 4° C. for 90 minutes, after which plates were washed twice in cold FACS buffer. […] Plates were washed twice in cold FACS buffer. […] Plates were washed twice in cold FACS buffer. Cells were resuspended in 55 μL 1/1000 diluted Propidium Iodide (Sigma-Aldrich, cat no P4170) in FACS buffer before acquiring data on the MACSQuant X (Miltenyi biotec).

[19] = biological target: T7, cynomolgus TCR on primary cynomolgus T cells (cynomolgus); assay: flow cytometry competition on primary cynomolgus T cells; competitor Flag-tagged T017000623 at EC30
T7 construct: whole, on cells; also called cyno TCRαβ
Description: as §1

[20] = biological target: T8, Cynomolgus TCR(AEA41865/AEA41866)-zipper protein (cynomolgus); assay: SPR, ProteOn XPR36; TCR-zipper protein immobilised by amine coupling
T8 construct: also called cyTCR-zipper; cyTCR(AEA41865)-zipper
T8 TCR alpha: T3 TCR alpha
T8 TCR beta: T3 TCR beta
Description: Purified ISVDs were injected for 2 minutes (flow rate 45 μL/min) at different concentrations (between 0.2 nM and 200 nM) and dissociation was followed for 900 s. Regeneration was performed by injecting 3 M MgCl₂ for 3 minutes (flow rate 90 μL/min). […] Processed sensorgrams were analyzed based on the 1:1 interaction model (Langmuir binding model) using ProteOn Manager 3.1.0 (Version 3.1.0.6) software.

- Kd [7]: 200 nM
B1: T017000634 (bispecific antibody)
chain: DVQLVESGGGLVQAGGSLRLSCAASGITSKINDMGWYRQTPGNYREWVASITATGTTNYRDSVKGRFTISRDNAKSTVYLQMNSLKPEDTTVYYCNTFPPISNFWGQGTLVTVSSGGGGSGGGGSGGGGSGGGGSGGGGSGGGGSGGGGSEVQLVESGGGVVQPGGSLRLSCVASGYVHKINFYGWYRQAPGKEREKVAHISIGDQTDYADSAKGRFTISRDESKNTVYLQMNSLRPEDTALYYCRALSRIWPYDYWGQGTLVTVSSA
notes: also called A0110056A10(E1D)-35GS-T0170056G05(L11V, D27Y, L34Y, M77T, K83R, V89L, F91Y, F95L, Y99W)-A
- IC50 (M), xCELLigence CHO Flp-In huCD123 cell killing, Cynomolgus T cell mediated killing [1]: 1.9e-11 M
- IC50 (M), xCELLigence CHO Flp-In huCD123 cell killing, Human T cell mediated killing [2]: 1.1e-11 M
- EC50 (M), T cell mediated MOLM-13 cell killing, human primary T cells, E:T 10:1 [3]: 1.4e-10 M
- % Lysis, T cell mediated MOLM-13 cell killing, cynomolgus primary T cells, E:T 10:1 [4]: 32%
- EC50 (M), T cell mediated MOLM-13 cell killing, cynomolgus primary T cells, E:T 10:1 [4]: 1.2e-10 M
- % lysis, KG-1a, Cynomolgus T cell mediated killing [5]: 41%
- EC50 (M), KG-1a, Cynomolgus T cell mediated killing [5]: 2.7e-10 M
- % lysis, KG-1a, Human T cell mediated killing [6]: 49%
- EC50 (M), KG-1a, Human T cell mediated killing [6]: 4.4e-10 M
- % lysis, MOLM-13, Cynomolgus T cell mediated killing [8]: 33%
- EC50 (M), MOLM-13, Cynomolgus T cell mediated killing [8]: 2.1e-10 M
- % lysis, MOLM-13, Human T cell mediated killing [9]: 22%
- EC50 (M), MOLM-13, Human T cell mediated killing [9]: 2.5e-10 M

- EC50 [10]: 110 nM
B2: T017000351 (VHH, not shown: small tags and cut ends)
VHH: EVQLVESGGGVVQPGGSLRLSCVASGDVHKINFLGWYRQAPGKEREKVAHISIGDQTDYADSAKGRFTISRDESKNMVYLQMNSLRPEDTALYFCRAFSRIYPYDYWGQGTLVTVSS
notes: also called T0170000351

- Kd [11]: 6.3 nM
- EC50 [12]: 46 nM
- Gap in off-rate human vs cyno [13]: 4.5 fold
- EC50 [14]: 45 nM
B3: T017000624 (VHH, not shown: small tags and cut ends)
VHH: B2 VHH with D27Y, L34Y, M77T, F94Y, F98L, Y102W

- IC50 [15]: 620 nM
- IC50 [16]: 100 nM
B4: T017000679 (VHH)
VHH: B2 VHH with E1D, D27Y, L34Y, M77T, F94Y, F98L, Y102W

- EC50 [10]: 160 nM
B5: T017000345 (VHH, not shown: small tags and cut ends)
VHH: B2 VHH with F94Y

- Kd [11]: 220 nM
- EC50 [12]: 100 nM
- Gap in off-rate human vs cyno [13]: 12.4 fold
B6: T017000141 (VHH, not shown: small tags and cut ends)
VHH: B2 VHH

- koff [17]: 0.00427 s⁻¹
B7: T017000687 (VHH, not shown: small tags and cut ends)
VHH: B2 VHH with D27S, K30Q, L34Y, M77T, F94Y, F98L, Y102W

- koff [17]: 0.00399 s⁻¹
B8: T017000685 (VHH, not shown: small tags and cut ends)
VHH: B2 VHH with D27E, K30Q, L34Y, M77T, F94Y, F98L, Y102W

- EC50 [10]: 110 nM
B9: T0170056G05 (VHH)
VHH: B2 VHH with V11L, R86K, L92V
notes: also called T01700056G05; parental ISVD

- IC50 [15]: 730 nM
- IC50 [16]: 92 nM
B10: T017000681 (VHH)
VHH: B2 VHH with E1D, D27Y, L34Y, M77T, L92T, F94Y, F98L, Y102W

- Kd [7]: 17 nM
B11: T017000633 (bispecific antibody)
chain: DVQLVESGGGVVQPGGSLRLSCVASGYVHKINFYGWYRQAPGKEREKVAHISIGDQTDYADSAKGRFTISRDESKNTVYLQMNSLRPEDTALYYCRALSRIWPYDYWGQGTLVTVSSGGGGSGGGGSGGGGSGGGGSGGGGSGGGGSGGGGSEVQLVESGGGLVQAGGSLRLSCAASGITSKINDMGWYRQTPGNYREWVASITATGTTNYRDSVKGRFTISRDNAKSTVYLQMNSLKPEDTTVYYCNTFPPISNFWGQGTLVTVSSA
- IC50 (M), xCELLigence CHO Flp-In huCD123 cell killing, Cynomolgus T cell mediated killing [1]: 5.1e-12 M
- IC50 (M), xCELLigence CHO Flp-In huCD123 cell killing, Human T cell mediated killing [2]: 9.1e-12 M
- % Lysis, T cell mediated MOLM-13 cell killing, human primary T cells, E:T 10:1 [3]: 31%
- EC50 (M), T cell mediated MOLM-13 cell killing, human primary T cells, E:T 10:1 [3]: 1.2e-10 M
- % Lysis, T cell mediated MOLM-13 cell killing, cynomolgus primary T cells, E:T 10:1 [4]: 35%
- EC50 (M), T cell mediated MOLM-13 cell killing, cynomolgus primary T cells, E:T 10:1 [4]: 5.2e-11 M
- % lysis, KG-1a, Cynomolgus T cell mediated killing [5]: 64%
- EC50 (M), KG-1a, Cynomolgus T cell mediated killing [5]: 3.4e-10 M
- % lysis, KG-1a, Human T cell mediated killing [6]: 56%
- EC50 (M), KG-1a, Human T cell mediated killing [6]: 6.8e-10 M
- % lysis, MOLM-13, Cynomolgus T cell mediated killing [8]: 44%
- % lysis, MOLM-13, Human T cell mediated killing [9]: 26%
- EC50 (M), MOLM-13, Human T cell mediated killing [9]: 1.8e-10 M

- IC50 [18]: 190 nM
- IC50 [19]: 250 nM
- Kd [20]: 11 nM
B12: T017000698 (bispecific antibody)
chain: DVQLVESGGGVVQPGGSLRLSCVASGYVHKINFYGWYRQAPGKEREKVAHISIGDQTDYADSAKGRFTISRDESKNTVYLQMNSLRPEDTAAYYCRALSRIWPYDYWGQGTLVTVSSGGGGSGGGSEVQLVESGGGVVQPGGSLRLSCAASGFTFRSFGMSWVRQAPGKGPEWVSSISGSGSDTLYADSVKGRFTISRDNSKNTLYLQMNSLRPEDTALYYCTIGGSLSRSSQGTLVTVSSA
notes: also called T017000680-9GS-ALB23002-A; TCE01-9GS-ALB23002-A
